IntAct's records for PubMed 17190814

B1: Antiviral innate immune response receptor RIG-I (Homo sapiens), O95786-1 (parent)
chain: MTTEQRRSLQAFQDYIRKTLDPTYILSYMAPWFREEEVQYIQAEKNNKGPMEAATLFLKFLLELQEEGWFRGFLDALDHAGYSGLYEAIESWDFKKIEKLEEYRLLLKRLQPEFKTRIIPTDIISDLSECLINQECEEILQICSTKGMMAGAEKLVECLLRSDKENWPKTLKLALEKERNKFSELWIVEKGIKDVETEDLEDKMETSDIQIFYQEDPECQNLSENSCPPSEVSDTNLYSPFKPRNYQLELALPAMKGKNTIICAPTGCGKTFVSLLICEHHLKKFPQGQKGKVVFFANQIPVYEQQKSVFSKYFERHGYRVTGISGATAENVPVEQIVENNDIIILTPQILVNNLKKGTIPSLSIFTLMIFDECHNTSKQHPYNMIMFNYLDQKLGGSSGPLPQVIGLTASVGVGDAKNTDEALDYICKLCASLDASVIATVKHNLEELEQVVYKPQKFFRKVESRISDKFKYIIAQLMRDTESLAKRICKDLENLSQIQNREFGTQKYEQWIVTVQKACMVFQMPDKDEESRICKALFLYTSHLRKYNDALIISEHARMKDALDYLKDFFSNVRAAGFDEIEQDLTQRFEEKLQELESVSRDPSNENPKLEDLCFILQEEYHLNPETITILFVKTRALVDALKNWIEGNPKLSFLKPGILTGRGKTNQNTGMTLPAQKCILDAFKASGDHNILIATSVADEGIDIAQCNLVILYEYVGNVIKMIQTRGRGRARGSKCFLLTSNAGVIEKEQINMYKEKMMNDSILRLQTWDEAVFREKILHIQTHEKFIRDSQEKPKPVPDKENKKLLCRKCKALACYTADVRVIEECHYTVLGDAFKECFVSRPHPKPKQFSSFEKRAKIFCARQNCSHDWGIHVKYKTFEIPVIKIESFVVEDIATGVQTLYSKWKDFHFEKIPFDPAEMSK

Variants of: B1
Settings: with MAVS
T55I was tested, and the “effect of a mutation on the interaction” value was “decreasing interaction strength”.
